Patent US20070042500A1, “Direct observation of molecular modifications in biological test systems by measuring flourescence lifetime” (Bayer Healthcare AG, priority 2003, published 2007)

Columns and labels:
[1] = biological target: PDE1b phosphodiesterase (Homo sapiens, UniProt Q01064); assay: PDE reaction with Fl-cAMP followed directly by fluorescence lifetime; type: biochemical; conditions: without inhibitor
Description: Like the phosphatases and kinases discussed above, phosphodiesterases are a very important class of targets, inter alia in the fields of indication of cardiovascular, metabolic disorders, central nervous system, cancer and respiratory diseases. It is therefore of great interest to have a generic assay format which can measure the conversion of cAMP or cGMP to the respective monophosphate. Usually detection enzyme cascades are used. […] In the experiment, first 1 μM Fl-cAMP and a 1:360 dilution of PDE1b were mixed in the presence of different concentrations of the inhibitor BAY 383045. The kinetics of the enzyme reaction was measured by means of an Ultra FLT prototype (Tecan) at room temperature.

[2] = FLT difference between phosphorylated and non-phosphorylated fluoresceine-kemptide under various pH/NaCl conditions; type: physicochemical; conditions: 50 nM; pH 6.0 to 9.5 buffers
Description: 0.1 M NaOH, 50 mM borate buffer pH 9.5, 50 mM HEPES buffer pH 8.0, 50 mM HEPES buffer pH 7.0, 50 mM MES buffer pH 6.0, 200 mM NaCl (low)
The quality of an FLT assay improves with increasing differences of the fluorescence lifetimes of reactant and product. An optimally large FLT difference will not be measured immediately in every case. On the other hand, it should be possible to increase the FLT difference initially obtained, for example by selecting and combining various parameters such as, for example, fluorescent dye, spacer molecule between dye and substrate molecule, or polarity, pH, ionic strength of the solvent or other additive. […] In each case 50 nM Fl-P-kemptide and Fl-kemptide were dissolved in the solutions described under Material, and their FLTs were measured by means of a modified Nanoscan instrument (IOM GmbH, Berlin, Germany) which transferred the signals to a transient recorder. 16 decay curves were averaged for each data point. The descending part of the logarithmic-scale curve was evaluated by means of linear regression and the negative slope was mathematically converted into FLT.

[3] = Fluorescence lifetime (FLT) of phosphorylated vs non-phosphorylated fluoresceine-peptide conjugate, Ultra FLT prototype (Tecan); type: physicochemical; conditions: 10 nM in 50 mM HEPES pH 7.5; mean of 10 measurements of 1 s
Description: It was intended to investigate whether there is a difference between the fluorescence lifetimes (FLTs) of the fluoresceine-peptide conjugates Fl-P1 and Fl-1. For this purpose, in each case 10 nM Fl-P1 and Fl-1 were dissolved in 50 mM HEPES pH 7.5. The fluorescence lifetimes (FLTs) were measured by means of an Ultra FLT prototype (Tecan). In each case, 10 measurements of 1 s each were averaged.

[4] = FLT of potential reactant and product of the TAFI enzyme reaction; type: physicochemical; conditions: 60 nM; independent of pH (6-9.5) and NaCl concentration (200 mM, 2 M)
Description: The enzyme thrombin activated with fibrinolysis inhibitor (TAFI) is a carboxypeptidase which plays an important part in thromboses. TAFI cleaves the arginine of the peptide sequence IFTR. This reaction may be detected by either mass spectrometric or chromatographic methods. Both methods are not suitable for high throughput substance testing. Alternatively, more or less complex enzyme cascades or chemical reactions may be used which generate a measurable absorption, fluorescence or luminescence signal. No method has been described to date with which the TAFI reaction can be measured directly and which is suitable at the same time for higher throughput. Therefore, the fluorescence lifetimes of the conjugates FJ23 and FJ24 which both carry a fluorescent dye excitable at 630 nm (Evoblue30, Mobitec) and which differ only in the FJ24 conjugate lacking the C-terminal arginine were measured. FJ23 is a potential reactant of the TAFI reaction, while FJ24 would be the corresponding reaction product. The FJ23 and FJ24 conjugates were dissolved at a concentration of 60 nM in various buffers with pH values of 6, 7, 8 and 9.5, and in the presence of 200 mM and 2 M NaCl.

Chain of PDE1b phosphodiesterase (Q01064 whole entry): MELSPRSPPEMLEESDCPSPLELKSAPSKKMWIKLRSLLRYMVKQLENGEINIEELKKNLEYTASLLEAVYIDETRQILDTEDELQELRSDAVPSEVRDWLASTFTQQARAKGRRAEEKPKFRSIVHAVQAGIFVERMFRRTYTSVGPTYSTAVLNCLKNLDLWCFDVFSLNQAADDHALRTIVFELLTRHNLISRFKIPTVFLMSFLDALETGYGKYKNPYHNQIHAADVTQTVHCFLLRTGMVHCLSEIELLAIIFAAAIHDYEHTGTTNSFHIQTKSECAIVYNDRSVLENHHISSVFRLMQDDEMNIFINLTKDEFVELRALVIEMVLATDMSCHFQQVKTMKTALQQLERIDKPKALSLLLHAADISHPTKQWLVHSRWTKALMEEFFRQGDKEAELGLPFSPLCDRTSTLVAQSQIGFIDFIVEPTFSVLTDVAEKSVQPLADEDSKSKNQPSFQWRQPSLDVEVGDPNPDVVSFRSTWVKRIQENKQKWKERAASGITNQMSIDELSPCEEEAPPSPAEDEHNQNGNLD

Molecule | differentiation of phosphorylated and non-phosphorylated form by means of FLT [2] | fluorescence lifetime (FLT) [3] | also measured
Nc1ncnc2c1nc(SCCNC(=S)Nc1ccc(-c3c4ccc(=O)cc-4oc4cc(O)ccc34)c(C(=O)O)c1)n2C1OC2COP(=O)(O)OC2C1O (stereo not shown) [Fl-cAMP, 8-fluo-cAMP] |  |  | fluorescence lifetime at start of PDE1b reaction ([1]; 1 μM Fl-cAMP, start of reaction): approx. 3500 ps; fluorescence lifetime after PDE1b reaction (conversion to Fl-AMP) ([1]; within 100 minutes of reaction): approx. 3350 ps
fluoresceine-C6-LRRASLGCONH2 [Fl-kemptide] | improves when the pH increases from 6.0 to 9.5 |  | 
fluoresceine-C6-TEGQYpQPQP-COOH [Fl-P1] |  | 3880 ps | 
Evoblue30-Ttds(Spacer)-IFTR-COOH [FJ24] |  |  | fluorescence lifetime [4]: 2194±18 ps
fluoresceine-C6-TEGQYQPQP-COOH ({fluorescein-C6}-TEGQYQPQP-OH) [Fl-1] |  | 3600 ps | 
fluoresceine-C6-LRRApSLGCONH2 [Fl-P-kemptide] | improves when the pH increases from 6.0 to 9.5 |  | 
